In paper PMC3589550:

Target: HAUSP^62–205 (HAUSP TRAF domain) (UniProt Q93009)
Test: ITC

Sequence of HAUSP^62–205 (HAUSP TRAF domain) (Q93009 62-205): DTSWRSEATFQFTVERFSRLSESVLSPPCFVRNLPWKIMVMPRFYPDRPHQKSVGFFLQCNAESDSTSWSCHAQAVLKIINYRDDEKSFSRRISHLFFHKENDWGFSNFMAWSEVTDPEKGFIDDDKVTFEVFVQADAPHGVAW

Ka [M⁻¹] | Substance
65000 | p53^350–364 peptide (from UniProt P04637 350-364)
67000 | p53^355–369 peptide (from UniProt P04637 355-369)
